molecular target: His-ToxR (Vibrio parahaemolyticus RIMD 2210633?) (UniProt Q05938); assay: DNase I footprinting
Chain of UniProt Q05938 (Q05938 1-176): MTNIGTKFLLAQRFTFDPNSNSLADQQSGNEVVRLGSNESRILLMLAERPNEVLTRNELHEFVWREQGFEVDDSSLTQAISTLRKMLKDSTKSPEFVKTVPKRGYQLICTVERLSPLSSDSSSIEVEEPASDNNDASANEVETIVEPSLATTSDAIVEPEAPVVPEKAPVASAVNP

| Sequence | binding |
| --- | --- |
| CAGAGTGACCCAGAGCCGTTTTGATGCTGTTATTTTTCATCATTCGGCGCGATTAATATGCTAAAGATGGTCGGATTTTTTTCGTTTTAAGACGTTTGAAAACAACAAAGCTCAGCAATGTGCTGAGCTTTGTGTTCGATTGATTTGGCGGTGATGCCCTACTCTGGTG (double strand) [VP1687 footprint probe] | binds |
| CAGATTGCTGAATATCGGTGATGTATGAGAAATCGTTCAATGTAAAAAATATGCGCAATGATTGATGCTGGGAGAATAGAAAGGATGAGGTGGTATTTATAGTGAATATTGGTCGGGAGTTTTTAGAAAACTGAAAACGCCCTAAAAAAACACGTCTGATTTTGACAGCCTGATAAAAACGCACTTCATATAATTCGCTTGTATTGTACGAAAGGAGTGCAAGTGAATGAGTATTATCAAT (double strand) [VP1667 (vopN) footprint probe] | binds |
| TTTCAGGGACGACTTTGTGATTTAGCCCCATGAAATCACCACACTAAGATGTCATTTAACATGTGGCTGACAAATGTAAATTCAAGGTCAATATTGCTAAAAACGGTGTTTTTTTAGAAAAATTTAATTATCCTACCCCCCTAAAAGCATCTAAAACGTCGCGTATCTCCCATGCGCAAACGTAATTTTGTGATATAAATCACCATAATTACAACATCATCCATCTAAGAAGAACTAA (double strand) [toxR footprint probe] | binds |

Reference: article PMC6135047
